The source of these data is publication PMC11255897.

The experiment has as its target Ras binding domain (RBD) of the yeast Ras effector Byr2 fused to GST. Briefly: pull-down with GST-Byr2(RBD), Flag immunoblot densitometry. Conditions: read off a plot; for percent of parent (% of RasC(WT)-CA binding) / percent of parent (% of wild-type RasC peak (10 s cAMP)): parent: est. 100; for percent of parent (% of wild-type RasC peak (10 s cAMP)): 10 s cAMP stimulation; for response (% of wild-type RasC peak (10 s cAMP)): basal (before cAMP stimulation), parent: est. 20. (A western blot detects proteins with antibodies after separation by electrophoresis.)

In the case of “constitutively active (CA) RasC-Q62L mutant, Flag-tagged (from UniProt P32253) A31D”, the percent of parent (% of RasC(WT)-CA binding) is 240.
As for “constitutively active (CA) RasC-Q62L mutant, Flag-tagged (from UniProt P32253) A31K”, the percent of parent (% of RasC(WT)-CA binding) stood at 290.
In the case of “constitutively active (CA) RasC-Q62L mutant, Flag-tagged (from UniProt P32253) A31L”, the percent of parent (% of RasC(WT)-CA binding) stood at 200.
Same read-out and setting: next, “constitutively active (CA) RasC-Q62L mutant, Flag-tagged (from UniProt P32253) K138A; R164A; K167A”: 180.
For the substance “constitutively active (CA) RasC-Q62L mutant, Flag-tagged (from UniProt P32253) K182A; K183A; R184A”, the percent of parent (% of RasC(WT)-CA binding) was 210.
On the same count and under the same terms, next, “constitutively active (CA) RasC-Q62L mutant, Flag-tagged (from UniProt P32253) Y41A”: 12.
Consider “wild-type Flag-RasC (from UniProt P32253) A31D”, for which the percent of parent (% of wild-type RasC peak (10 s cAMP)) worked out at 42 and the response (% of wild-type RasC peak (10 s cAMP)) came to 27.
In the case of “wild-type Flag-RasC (from UniProt P32253) A31K”, the percent of parent (% of wild-type RasC peak (10 s cAMP)) was 130 and the response (% of wild-type RasC peak (10 s cAMP)) is 28.
The corresponding values for “wild-type Flag-RasC (from UniProt P32253) A31L” are 170 and 35.
The corresponding values for “wild-type Flag-RasC (from UniProt P32253) C186A” are 2 and 2.
As to “wild-type Flag-RasC (from UniProt P32253) E38A”, the percent of parent (% of wild-type RasC peak (10 s cAMP)) is 10 and the response (% of wild-type RasC peak (10 s cAMP)) amounted to 5.
The corresponding values for “wild-type Flag-RasC (from UniProt P32253) E38A; N39A; S40A” are 18 and 19.
Take “wild-type Flag-RasC (from UniProt P32253) K138A; R164A; K167A”: the percent of parent (% of wild-type RasC peak (10 s cAMP)) came to 100.
Turning to “wild-type Flag-RasC (from UniProt P32253) K182A; K183A; R184A”, the percent of parent (% of wild-type RasC peak (10 s cAMP)) stood at 17 and the response (% of wild-type RasC peak (10 s cAMP)) was determined as 8.
Take “wild-type Flag-RasC (from UniProt P32253) Q62L”: the response (% of RasC(WT)-CA binding) (parent: est. 15) was determined as 100.
Consider “wild-type Flag-RasC (from UniProt P32253) T36A”, for which the percent of parent (% of wild-type RasC peak (10 s cAMP)) stood at 8 and the response (% of wild-type RasC peak (10 s cAMP)) was determined as 11.
Take “wild-type Flag-RasC (from UniProt P32253) Y41A”: the percent of parent (% of wild-type RasC peak (10 s cAMP)) was 23.
